Patent US20160039904A1, “STABILIZED SINGLE HUMAN CD4 DOMAINS AND FUSION PROTEINS” (priority 2013, published 2016)

What was measured:
Experiment in all cases: cell-based or functional assay
[1] = target: HIV-1 Env of isolate 55815.EC3 (HIV-1)
[2] = target: HIV-1 Env of isolate CNE14 (HIV-1)
[3] = target: HIV-1 Env of isolate CH91 (HIV-1)
[4] = target: HIV-1 Env of isolate CNE107 (HIV-1)
[5] = target: HIV-1 Env of isolate CNE3 (HIV-1)
[6] = target: HIV-1 Env of isolate CNE40 (HIV-1)
[7] = target: HIV-1 Env of isolate CNE16 (HIV-1)
[8] = target: HIV-1 Env of isolate CNE30 (HIV-1)
[9] = target: HIV-1 Env of isolate CNE65 (HIV-1)
[10] = target: HIV-1 Env of isolate CM240.EC1 (HIV-1)
[11] = target: HIV-1 Env of isolate CNE47 (HIV-1)
[12] = target: HIV-1 Env of isolate CNE64 (HIV-1)
[13] = target: HIV-1 Env of isolate CNE57 (HIV-1)
[14] = target: HIV-1 Env of isolate CH70 (HIV-1)
[15] = target: HIV-1 Env of isolate CNE20 (HIV-1)
[16] = target: HIV-1 Env of isolate 57128.VRC18 (HIV-1)
[17] = target: HIV-1 Env of isolate KNH1088.EC5 (HIV-1)
[18] = target: HIV-1 Env of isolate CNE11 (HIV-1)
[19] = target: HIV-1 Env of isolate CNE9 (HIV-1)
[20] = target: HIV-1 Env of isolate CNE15 (HIV-1)
[21] = target: HIV-1 Env of isolate CAM0015BBY.EC3 (HIV-1)
[22] = target: HIV-1 Env of isolate CNE66 (HIV-1)
[23] = target: HIV-1 Env of isolate GS-015.EC12 (HIV-1)
[24] = target: HIV-1 Env of isolate CH114 (HIV-1)
[25] = target: HIV-1 Env of isolate CNE59 (HIV-1)
[26] = target: HIV-1 Env of isolate YN192.31 (HIV-1)
[27] = target: HIV-1 Env of isolate AE20 (HIV-1)
[28] = target: HIV-1 Env of isolate CH120 (HIV-1)
[29] = target: HIV-1 Env of isolate PBL286.VRC36aPV (HIV-1)
[30] = target: HIV-1 Env of isolate CNE23 (HIV-1)
[31] = target: HIV-1 Env of isolate KNH1144.EC1 (HIV-1)
[32] = target: HIV-1 Env of isolate CNE58 (HIV-1)
[33] = target: HIV-1 Env of isolate CNE55 (HIV-1)
[34] = target: HIV-1 Env of isolate CNE4 (HIV-1)
[35] = target: HIV-1 Env of isolate CH117 (HIV-1)
[36] = target: HIV-1 Env of isolate GX2010.36 (HIV-1)
[37] = target: HIV-1 Env of isolate CNE1 (HIV-1)
[38] = target: HIV-1 Env of isolate CH110 (HIV-1)
[39] = target: HIV-1 Env of isolate N1 1046.e3 PV (HIV-1)
[40] = target: HIV-1 Env of isolate A07412VRC12A (HIV-1)
[41] = target: HIV-1 Env of isolate CNE5 (HIV-1)
[42] = target: HIV-1 Env of isolate CNE7 (HIV-1)

## D1D2Fc (from UniProt P01730 26-203) (Fc fusion)
[1]
  IC50, neutralization in TZM-bl cell-based assay: 6.2 nM
  IC90, neutralization in TZM-bl cell-based assay: 116 nM
[2]
  neutralization IC50: 105 nM
  neutralization IC90: 248 nM
[3]
  neutralization IC50: 35 nM
  neutralization IC90: > 250 nM
[4]
  neutralization IC50: 135 nM
  neutralization IC90: > 250 nM
[5]
  neutralization IC50: > 250 nM
  neutralization IC90: > 250 nM
[6]
  neutralization IC50: 0.06 nM
  neutralization IC90: 0.5 nM
[7]
  neutralization IC50: 11 nM
  neutralization IC90: 229 nM
[8]
  neutralization IC50: 17 nM
  neutralization IC90: 211 nM
[9]
  neutralization IC50: 15 nM
  neutralization IC90: 115 nM
[10]
  IC50, neutralization in TZM-bl cell-based assay: 20 nM
  IC90, neutralization in TZM-bl cell-based assay: > 250 nM
[11]
  neutralization IC50: 152 nM
  neutralization IC90: > 250 nM
[12]
  neutralization IC50: 12 nM
  neutralization IC90: 113 nM
[13]
  neutralization IC50: 250 nM
  neutralization IC90: > 250 nM
[14]
  neutralization IC50: 7.3 nM
  neutralization IC90: 109 nM
[15]
  neutralization IC50: 65 nM
  neutralization IC90: > 250 nM
[16]
  IC90, neutralization in TZM-bl cell-based assay: 41 nM
[17]
  IC50, neutralization in TZM-bl cell-based assay: > 250 nM
  IC90, neutralization in TZM-bl cell-based assay: > 250 nM
[18]
  neutralization IC50: > 250 nM
  neutralization IC90: > 250 nM
[19]
  neutralization IC50: 9.9 nM
  neutralization IC90: 63 nM
[20]
  neutralization IC50: 106 nM
  neutralization IC90: > 250 nM
[21]
  IC50, neutralization in TZM-bl cell-based assay: 41 nM
  IC90, neutralization in TZM-bl cell-based assay: > 250 nM
[22]
  neutralization IC50: 159 nM
  neutralization IC90: > 250 nM
[23]
  IC50, neutralization in TZM-bl cell-based assay: 0.2 nM
[24]
  neutralization IC50: 23 nM
  neutralization IC90: 198 nM
[25]
  neutralization IC50: 10 nM
  neutralization IC90: 220 nM
[26]
  neutralization IC50: 155 nM
  neutralization IC90: > 250 nM
[27]
  neutralization IC50: 50 nM
  neutralization IC90: > 250 nM
[28]
  neutralization IC50: 104 nM
  neutralization IC90: > 250 nM
[29]
  IC50, neutralization in TZM-bl cell-based assay: 87 nM
  IC90, neutralization in TZM-bl cell-based assay: > 250 nM
[30]
  neutralization IC50: > 250 nM
  neutralization IC90: > 250 nM
[31]
  IC50, neutralization in TZM-bl cell-based assay: 4.8 nM
[32]
  neutralization IC50: > 250 nM
  neutralization IC90: > 250 nM
[33]
  neutralization IC50: 213 nM
  neutralization IC90: > 250 nM
[34]
  neutralization IC50: 3.9 nM
  neutralization IC90: 24 nM
[35]
  neutralization IC50: 27 nM
  neutralization IC90: > 250 nM
[36]
  neutralization IC50: 12 nM
  neutralization IC90: > 250 nM
[37]
  neutralization IC50: 197 nM
  neutralization IC90: > 250 nM
[38]
  neutralization IC50: 28 nM
  neutralization IC90: > 250 nM
[39]
  IC50, neutralization in TZM-bl cell-based assay: 183 nM
  IC90, neutralization in TZM-bl cell-based assay: > 250 nM
[40]
  IC50, neutralization in TZM-bl cell-based assay: 57 nM
  IC90, neutralization in TZM-bl cell-based assay: > 250 nM
[41]
  neutralization IC50: 94 nM
  neutralization IC90: 236 nM
[42]
  neutralization IC50: 19 nM
  neutralization IC90: 161 nM
